Tests used:
purified αIIbβ3 integrin = target: T1, purified αIIbβ3 integrin (Homo sapiens (assumed), UniProt P08514;P05106); test: SPR; Biacore 3000; αIIbβ3 amine-coupled on CM5 (about 8000 RU); scFv injected at 94, 188 and 390 nM; HBS-EP with 2 mM Ca2+; 20 μL/min; settings: both partners purified
T1 construct: integrin αIIb (CD41) subunit of purified αIIbβ3; integrin β3 subunit of purified αIIbβ3; probably from human platelets (surmise); also called integrin αIIbβ3; source: bought: Kordia Life Sciences
T1 sequence (P08514 32-1039, chain 1 of 2): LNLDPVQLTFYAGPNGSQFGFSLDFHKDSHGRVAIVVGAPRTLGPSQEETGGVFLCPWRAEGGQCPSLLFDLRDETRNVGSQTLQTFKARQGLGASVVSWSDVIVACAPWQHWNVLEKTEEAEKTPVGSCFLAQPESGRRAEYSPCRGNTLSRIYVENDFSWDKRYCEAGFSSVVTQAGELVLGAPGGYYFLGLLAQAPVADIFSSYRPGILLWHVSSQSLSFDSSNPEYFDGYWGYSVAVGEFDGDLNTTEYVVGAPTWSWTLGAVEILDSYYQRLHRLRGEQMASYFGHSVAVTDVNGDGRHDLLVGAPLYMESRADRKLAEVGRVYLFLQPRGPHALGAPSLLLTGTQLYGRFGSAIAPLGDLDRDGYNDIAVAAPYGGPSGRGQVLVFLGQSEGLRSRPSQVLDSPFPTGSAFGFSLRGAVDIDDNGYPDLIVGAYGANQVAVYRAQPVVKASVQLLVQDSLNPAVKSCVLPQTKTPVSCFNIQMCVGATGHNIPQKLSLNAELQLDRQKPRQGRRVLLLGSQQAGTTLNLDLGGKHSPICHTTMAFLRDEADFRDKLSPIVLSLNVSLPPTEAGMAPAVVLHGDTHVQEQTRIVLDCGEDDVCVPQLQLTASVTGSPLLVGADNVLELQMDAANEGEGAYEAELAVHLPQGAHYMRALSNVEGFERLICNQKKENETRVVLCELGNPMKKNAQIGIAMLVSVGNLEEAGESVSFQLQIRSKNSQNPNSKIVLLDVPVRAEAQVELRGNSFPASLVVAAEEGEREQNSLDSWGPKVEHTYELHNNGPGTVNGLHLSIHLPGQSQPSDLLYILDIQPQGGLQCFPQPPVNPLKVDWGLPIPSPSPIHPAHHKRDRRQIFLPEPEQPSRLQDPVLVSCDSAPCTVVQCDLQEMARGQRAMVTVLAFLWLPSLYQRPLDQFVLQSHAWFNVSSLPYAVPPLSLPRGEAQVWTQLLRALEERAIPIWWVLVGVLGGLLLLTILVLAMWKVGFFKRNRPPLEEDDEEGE
T1 sequence (P05106 27-718, chain 2 of 2): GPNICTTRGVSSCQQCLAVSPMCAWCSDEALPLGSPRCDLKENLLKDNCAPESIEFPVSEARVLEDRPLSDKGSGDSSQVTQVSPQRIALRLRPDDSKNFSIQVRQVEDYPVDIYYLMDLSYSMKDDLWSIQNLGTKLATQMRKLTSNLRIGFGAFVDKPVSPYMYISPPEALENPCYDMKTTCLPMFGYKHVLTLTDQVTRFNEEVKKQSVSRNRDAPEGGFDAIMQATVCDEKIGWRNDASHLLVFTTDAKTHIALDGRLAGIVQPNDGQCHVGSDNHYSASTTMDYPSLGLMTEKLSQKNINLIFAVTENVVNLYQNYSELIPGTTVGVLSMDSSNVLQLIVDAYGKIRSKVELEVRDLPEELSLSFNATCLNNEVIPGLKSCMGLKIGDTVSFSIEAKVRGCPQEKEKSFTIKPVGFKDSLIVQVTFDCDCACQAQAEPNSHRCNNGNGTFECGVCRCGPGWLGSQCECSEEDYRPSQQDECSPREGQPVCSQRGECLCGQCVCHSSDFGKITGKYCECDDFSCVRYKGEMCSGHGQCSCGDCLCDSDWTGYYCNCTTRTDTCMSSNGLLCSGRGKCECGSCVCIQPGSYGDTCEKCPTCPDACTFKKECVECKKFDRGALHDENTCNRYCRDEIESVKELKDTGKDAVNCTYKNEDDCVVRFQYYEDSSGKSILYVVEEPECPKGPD

[1] = target: T2, αIIbβ3 integrin on lyophilized platelets (Homo sapiens (assumed), UniProt P08514;P05106); test: BLI; Octet Red96; TEG4-2c scFv loaded on HIS2 (anti-penta-His) sensor at 21 μg/mL; platelets 5x10^5 to 5x10^8/mL (αIIbβ3 42 pM to 42 nM) as analyte; platelet buffer; settings: one partner purified
T2 construct: integrin αIIb (CD41) on lyophilized platelets; integrin β3 on lyophilized platelets; Platelet concentrations were converted into αIIbβ3 molarities with 50 000 αIIbβ3 per platelet; also called whole platelets; blood platelets; source: bought: lyophilized platelets, Helena Biosciences Europe, resuspended
T2 sequence (P08514 32-1039, chain 1 of 2): as the sequence (P08514 32-1039, chain 1 of 2) above
T2 sequence (P05106 27-788, chain 2 of 2): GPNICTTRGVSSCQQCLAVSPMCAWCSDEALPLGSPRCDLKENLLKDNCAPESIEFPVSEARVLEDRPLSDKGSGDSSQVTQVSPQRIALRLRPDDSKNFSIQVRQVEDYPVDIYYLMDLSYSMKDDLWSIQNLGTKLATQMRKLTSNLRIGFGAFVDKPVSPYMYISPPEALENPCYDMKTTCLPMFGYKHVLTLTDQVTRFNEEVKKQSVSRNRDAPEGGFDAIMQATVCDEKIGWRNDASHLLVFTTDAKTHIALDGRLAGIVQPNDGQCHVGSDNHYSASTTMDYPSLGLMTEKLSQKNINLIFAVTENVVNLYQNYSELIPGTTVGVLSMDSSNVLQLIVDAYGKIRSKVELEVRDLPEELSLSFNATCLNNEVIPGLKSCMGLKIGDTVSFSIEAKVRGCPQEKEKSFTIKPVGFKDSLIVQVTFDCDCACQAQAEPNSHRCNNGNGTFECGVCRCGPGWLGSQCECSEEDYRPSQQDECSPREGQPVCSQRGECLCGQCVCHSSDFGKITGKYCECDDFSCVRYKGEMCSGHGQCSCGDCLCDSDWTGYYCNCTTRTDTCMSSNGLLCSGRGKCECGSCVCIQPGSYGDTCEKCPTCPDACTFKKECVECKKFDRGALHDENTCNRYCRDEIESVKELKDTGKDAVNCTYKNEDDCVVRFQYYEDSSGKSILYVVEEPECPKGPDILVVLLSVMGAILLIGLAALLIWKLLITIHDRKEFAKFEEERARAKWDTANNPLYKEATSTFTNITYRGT

[2] = target: T3, αIIbβ3 integrin of rabbit platelets in aorta (Oryctolagus cuniculus, New Zealand, UniProt Q9TUN4;Q9TUN3); test: immunostaining of cells or tissue; paraffin sections of atherosclerotic arteries of mouse, rabbit and human; scFv 20-40 μg/ml overnight at 4°C; detected with HRP anti-6His and DAB; settings: one partner purified
T3 construct: integrin αIIb (CD41), rabbit, endogenous in aorta tissue; integrin β3, rabbit, endogenous in aorta tissue; In the ELISA the integrin stood within solubilised aorta proteins (T-PER or HSB lysis buffer), not on cells; also called atheromatous proteins; healthy aorta proteins; source: endogenous, New Zealand rabbit aorta (paraffin sections; soluble protein extracts of atheromatous and healthy aorta)

[3] = target: T4, αIIbβ3 integrin on murine platelets in atherosclerotic aorta sections (Mus musculus, ApoE-/-, UniProt Q9QUM0;O54890); test: as above; settings: one partner purified
T4 construct: integrin αIIb (CD41), mouse, on platelets in tissue; integrin β3, mouse, on platelets in tissue; source: endogenous, paraffin sections of aorta of ApoE-/- mice
T4 sequence (Q9QUM0 32-1033, chain 1 of 2): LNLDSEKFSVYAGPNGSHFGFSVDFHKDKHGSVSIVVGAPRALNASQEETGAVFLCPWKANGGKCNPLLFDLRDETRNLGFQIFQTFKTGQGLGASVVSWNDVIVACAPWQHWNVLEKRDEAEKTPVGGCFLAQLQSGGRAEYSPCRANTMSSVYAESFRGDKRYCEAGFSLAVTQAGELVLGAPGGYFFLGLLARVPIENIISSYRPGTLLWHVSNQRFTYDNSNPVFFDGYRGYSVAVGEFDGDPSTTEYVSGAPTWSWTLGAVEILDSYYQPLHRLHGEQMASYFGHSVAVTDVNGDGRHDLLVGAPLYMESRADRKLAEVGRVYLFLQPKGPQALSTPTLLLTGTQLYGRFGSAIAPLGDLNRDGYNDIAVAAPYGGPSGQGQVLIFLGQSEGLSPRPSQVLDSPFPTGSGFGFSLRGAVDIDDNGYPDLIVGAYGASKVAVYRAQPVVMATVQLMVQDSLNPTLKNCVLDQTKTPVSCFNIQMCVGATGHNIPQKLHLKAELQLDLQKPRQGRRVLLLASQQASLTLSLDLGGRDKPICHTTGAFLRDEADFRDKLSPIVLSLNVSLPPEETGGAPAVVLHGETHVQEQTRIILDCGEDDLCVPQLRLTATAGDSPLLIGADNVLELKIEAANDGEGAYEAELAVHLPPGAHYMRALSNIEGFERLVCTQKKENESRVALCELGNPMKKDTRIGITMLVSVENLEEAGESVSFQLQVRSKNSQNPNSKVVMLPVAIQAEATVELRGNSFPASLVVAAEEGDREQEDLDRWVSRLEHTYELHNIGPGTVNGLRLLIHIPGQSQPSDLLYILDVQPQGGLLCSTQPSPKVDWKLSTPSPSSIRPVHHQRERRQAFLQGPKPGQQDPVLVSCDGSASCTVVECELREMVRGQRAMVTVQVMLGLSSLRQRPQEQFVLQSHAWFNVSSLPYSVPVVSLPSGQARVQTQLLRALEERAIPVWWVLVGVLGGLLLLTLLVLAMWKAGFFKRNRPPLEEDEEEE
T4 sequence (O54890 26-787, chain 2 of 2): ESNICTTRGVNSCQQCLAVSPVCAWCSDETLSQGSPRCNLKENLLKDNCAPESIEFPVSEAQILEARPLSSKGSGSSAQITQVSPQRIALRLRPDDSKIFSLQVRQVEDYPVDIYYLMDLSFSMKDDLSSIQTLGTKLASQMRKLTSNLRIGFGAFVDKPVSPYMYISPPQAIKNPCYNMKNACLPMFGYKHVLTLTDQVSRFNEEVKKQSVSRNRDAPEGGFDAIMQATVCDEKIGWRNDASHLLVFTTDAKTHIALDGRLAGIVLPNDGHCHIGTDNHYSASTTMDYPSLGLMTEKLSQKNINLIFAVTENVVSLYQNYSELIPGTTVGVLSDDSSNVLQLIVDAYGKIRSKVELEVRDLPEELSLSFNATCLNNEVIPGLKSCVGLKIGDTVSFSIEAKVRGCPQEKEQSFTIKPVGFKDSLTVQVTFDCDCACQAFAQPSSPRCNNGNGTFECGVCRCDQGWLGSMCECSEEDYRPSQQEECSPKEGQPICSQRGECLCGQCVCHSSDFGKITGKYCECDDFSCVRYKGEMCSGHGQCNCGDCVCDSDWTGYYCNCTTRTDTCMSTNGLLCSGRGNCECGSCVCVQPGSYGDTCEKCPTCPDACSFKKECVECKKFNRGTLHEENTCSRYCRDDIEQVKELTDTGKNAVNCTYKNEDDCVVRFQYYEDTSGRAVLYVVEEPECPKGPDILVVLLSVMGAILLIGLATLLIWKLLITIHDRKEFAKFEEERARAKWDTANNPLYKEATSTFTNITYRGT

[4] = target: T5, αIIbβ3 integrin on human platelets (Homo sapiens, UniProt P08514;P05106); test: flow cytometry on cells; washed human platelets activated with 0.5 U/ml thrombin, PFA-fixed; 25 μg/mL TEG4-2c scFv overnight at 4°C; detected with Alexa Fluor 488 anti-6His; settings: one partner purified
T5 construct: integrin αIIb (CD41), human, on platelets; integrin β3, human, on platelets; the state is told by the assay; also called A-PL; NA-PL; source: endogenous, human platelets (washed platelets and platelet-rich plasma from healthy donors; platelets in human coronary artery sections)
T5 sequence (P08514 32-1039, chain 1 of 2): as the sequence (P08514 32-1039, chain 1 of 2) above
T5 sequence (P05106 27-788, chain 2 of 2): as the sequence (P05106 27-788, chain 2 of 2) above

Measured: binding result

B1: TEG4-2c scFv (recombinant human anti-αIIbβ3 single-chain variable fragment with 6His-Gly-Cys-Cys C-terminus) (scFv, V domains shown)
VH: QVQLVESGGGVVQPGRSLRLSCAASGFTFSSYAMHWVRQAPGKGLEWVAVISYDGSNKYYADSVKGRFTISRDNSKNTLYLQMNSLRAEDTAVYYCARKSYFDYWGQGTLVTVSS
VL: VSELTQPASVSGSPGQSITISCTGTSSDVGGYNYVSWYQQHPGKAPKLMIYEVSNRPSGVSNRFSGSKSGNTASLTISGLQAEDEADYYCSSYTSSSTLVVFGGGTKLTVL
notes: Gly-Cys-Cys added after the 6His tag at the very C-terminus (printed in three-letter code as 'Gly-Cyc-Cys'), for site-specific grafting; Order at the C-terminus: scFv, c-myc tag, 6His, Gly-Cys-Cys; Purified fractions are said to hold monomers and dimers; also called scFv TEG4-2c; anti-αIIbβ3 TEG4-2c scFv; source: Pichia pastoris X33, secreted into the supernatant, purified (IMAC HisTrap excel, …)
binds: purified αIIbβ3 integrin | [1] | [2] | [3] | [4]

Reference: PMC5268420 (PLoS ONE, 2017)
